Results taken from US20230051701A1 (Bristol-Myers Squibb, published 2023).
Where a chain is given by its changes, count along the chain named. Names and notes keep the numbering of the source. Values joined by “and” are separate entries in the source; they are usually repeats but may differ in a detail not shown here. Identical values can stand only once.

T1: human CD73 on cells (Calu6, NCI-H292, SK-MEL-24, human tumor cell lines, human B and T cells) (human, UniProt P21589 27-549)
T1 sequence: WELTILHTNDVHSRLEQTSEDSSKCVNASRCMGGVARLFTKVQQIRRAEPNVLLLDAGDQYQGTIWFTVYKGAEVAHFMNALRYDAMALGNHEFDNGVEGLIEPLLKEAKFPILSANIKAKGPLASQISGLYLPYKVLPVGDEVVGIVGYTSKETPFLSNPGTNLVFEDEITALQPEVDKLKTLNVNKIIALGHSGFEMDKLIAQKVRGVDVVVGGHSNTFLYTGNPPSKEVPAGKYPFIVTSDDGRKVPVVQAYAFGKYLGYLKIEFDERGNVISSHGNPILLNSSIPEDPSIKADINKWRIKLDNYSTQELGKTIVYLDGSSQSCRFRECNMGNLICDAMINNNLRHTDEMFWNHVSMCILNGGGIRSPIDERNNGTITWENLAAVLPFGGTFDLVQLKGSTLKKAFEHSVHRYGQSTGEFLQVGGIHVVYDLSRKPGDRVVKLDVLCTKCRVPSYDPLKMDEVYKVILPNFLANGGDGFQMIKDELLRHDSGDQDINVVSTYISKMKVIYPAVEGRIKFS

T2: rhCD73 bound to his-tag magnet beads (human, UniProt P21589 27-549, limits assumed)
T2 sequence: T1 sequence

T3: N-terminal domain of hCD73 (residues 26-336 of human CD73), His-tagged (human, UniProt P21589 26-336)
T3 construct: also called N-hCD73; N-hCD73-his
T3 sequence: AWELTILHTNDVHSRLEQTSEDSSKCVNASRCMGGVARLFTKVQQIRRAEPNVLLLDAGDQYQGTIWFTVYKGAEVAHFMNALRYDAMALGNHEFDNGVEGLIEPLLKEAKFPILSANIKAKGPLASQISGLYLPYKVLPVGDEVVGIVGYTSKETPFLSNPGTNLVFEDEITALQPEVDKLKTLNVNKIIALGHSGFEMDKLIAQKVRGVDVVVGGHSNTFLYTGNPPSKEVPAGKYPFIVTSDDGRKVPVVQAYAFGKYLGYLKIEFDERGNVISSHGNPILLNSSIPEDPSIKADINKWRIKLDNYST

B1: CD73.4-IgG2.3-plusTHT (antibody)
heavy: QVQLVESGGGVVQPGRSLRLSCAASGFTFSNYGMHWVRQAPGKGLEWVAVILYDGSNKYYPDSVKGRFTISRDNSKNTLYLQMNSLRAEDTAVYYCARGGSSWYPDSFDIWGQGTMVTVSSASTKGPSVFPLAPCSRSTSESTAALGCLVKDYFPEPVTVSWNSGALTSGVHTFPAVLQSSGLYSLSSVVTVPSSNFGTQTYTCNVDHKPSNTKVDKTVERKSCVETHTCPPCPAPPVAGPSVFLFPPKPKDTLMISRTPEVTCVVVDVSHEDPEVQFNWYVDGVEVHNAKTKPREEQFNSTFRVVSVLTVVHQDWLNGKEYKCKVSNKGLPAPIEKTISKTKGQPREPQVYTLPPSREEMTKNQVSLTCLVKGFYPSDIAVEWESNGQPENNYKTTPPMLDSDGSFFLYSKLTVDKSRWQQGNVFSCSVMHEALHNHYTQKSLSLSPGK
light: not shown
B2: CD73.4-IgG2.5-plusTHT (antibody)
heavy: B1 heavy with C135S, S223C
light: not shown
B3: CD73.4-IgG2.3-plusGGG (antibody)
heavy: B1 heavy with T227G, H228G, T229G
light: not shown
B4: CD73.4-IgG2.5G1-KH (antibody)
heavy: QVQLVESGGGVVQPGRSLRLSCAASGFTFSNYGMHWVRQAPGKGLEWVAVILYDGSNKYYPDSVKGRFTISRDNSKNTLYLQMNSLRAEDTAVYYCARGGSSWYPDSFDIWGQGTMVTVSSASTKGPSVFPLAPSSRSTSESTAALGCLVKDYFPEPVTVSWNSGALTSGVHTFPAVLQSSGLYSLSSVVTVPSSNFGTQTYTCNVDHKPSNTKVDKTVERKCCVECPPCPAPPVAGPSVFLFPPKPKDTLMISRTPEVTCVVVDVSHEDPEVKFNWYVDGVEVHNAKTKPREEQYNSTYRVVSVLTVLHQDWLNGKEYKCKVSNKALPAPIEKTISKAKGQPREPQVYTLPPSREEMTKNQVSLTCLVKGFYPSDIAVEWESNGQPENNYKTTPPVLDSDGSFFLYSKLTVDKSRWQQGNVFSCSVMHEALHNHYTQKSLSLSPGK
light: not shown
B5: CD73.4-IgG2.5G1.1f-KH (antibody)
heavy: B4 heavy with A330S, P331S
light: not shown
B6: CD73.4-IgG2.3G1-KH (antibody)
heavy: B4 heavy with S135C, C223S
light: not shown
B7: CD73.4-IgG2.5 (antibody)
heavy: B4 heavy with K274Q, Y296F, Y300F, L309V, A327G, A339T, V397M
light: not shown
B8: 10D2 (antibody, human IgG4, kappa, V domains shown)
VH: QVQLVESGGGVVQPGRSLRLSCAASGFTFSNYGLHWVRQAPGKGLEWVAVIRYDGSNKYYADSVKGRFTISRDNSKNTLYLQMSSLRAEDTAVYYCARGGSSWYPDGLDVWGQGTTVTVSS
VL: DIQMTQSPSSLSASVGDRVTITCRASQGISSWLAWYQQKPEKAPKSLIYAASSLQSGVPSRFSGSGSGTDFTLTISSLQPEDFATYYCQQYNSYPLTFGGGTKVEIKR
notes: also called 10D2-2
B9: 24H2 (antibody, human IgG4, kappa, V domains shown)
VH: B8 VH with L34M, R52W, S56G, Y80F, S84N, G107A, L108F, V110I, T116M
VL: B8 VL
notes: also called 24H2-1
B10: 4C3 (antibody, human IgG1, kappa, V domains shown)
VH: EVQLVESGGGLVQPGRSLRLSCAASGFTFDDYAMHWVRQAPGKGLEWVSGISWKSGSIGYADSVKGRFTISRDNAKNSLYLQMNSLRAEDTALYYCVKGYYVILTGLDYWGQGTLVTVSS
VL: not shown
notes: IgG1za from hybridoma; also called 4C3-1
B11: CD73.6-IgG2-C219S-IgG1.1f (antibody)
heavy: B4 heavy with G55S, S135C, C223S, A330S, P331S
light: not shown
notes: also called CD73.6-IgG2CS IgG1.1f
B12: CD73.11-IgG2-C219S (antibody)
heavy: QVQLVESGGGVVQPGRSLRLSCAASGFTFSNYGMHWVRQAPGKGLEWVAVIWYDESNKYYADSVKGRFTISRDNSKNTLFLQMNSLRAEDTAVYYCARGYNSRWYPDAFDIWGQGTMVTVSSASTKGPSVFPLAPCSRSTSESTAALGCLVKDYFPEPVTVSWNSGALTSGVHTFPAVLQSSGLYSLSSVVTVPSSNFGTQTYTCNVDHKPSNTKVDKTVERKSCVECPPCPAPPVAGPSVFLFPPKPKDTLMISRTPEVTCVVVDVSHEDPEVQFNWYVDGVEVHNAKTKPREEQFNSTFRVVSVLTVVHQDWLNGKEYKCKVSNKGLPAPIEKTISKTKGQPREPQVYTLPPSREEMTKNQVSLTCLVKGFYPSDIAVEWESNGQPENNYKTTPPMLDSDGSFFLYSKLTVDKSRWQQGNVFSCSVMHEALHNHYTQKSLSLSPG
light: not shown
notes: 4D4 variable regions; also called CD73.11-IgG2CS; mAb-CD73.11-Vh-hHC-IgG2-C219S

Target: T1, human CD73 on cells (Calu6, NCI-H292, …)
Test: cell-based or functional assay

Row | Binder | CD73 Inhibition S:B, cAMP assay, Calu6 | CD73 Inhibition EC50(nM), cAMP assay, Calu6 [nM]
1 | B1 | 33 | –
2 | B2 | 44 | 0.9
3 | B3 | – | 1.26
4 | B4 | 42 | 0.44
5 | B5 | 45 | 0.87
6 | B6 | 52 | 1.7
7 | B7 | 51 | 2.17

Target: T1, human CD73 on cells (Calu6, NCI-H292, …)
Test: cell-based or functional assay
Remark: another data set of the same source

Row | Binder | Ymax, CD73 internalization, Calu6, 2 h | EC50 (nM), CD73 internalization, Calu6, 2 h [nM]
8 | B8 | 29 % of 100 nM 11F11 | –
9 | B9 | 51 % of 100 nM 11F11 | 8.2

Target: T1, human CD73 on cells (Calu6, NCI-H292, …)
Test: cell-based or functional assay
Remark: another data set of the same source

Row | Binder | Ymax, cAMP HTRF assay
10 | B10 | 80 % of 100 nM 11F11

Target: T2, rhCD73 bound to his-tag magnet beads
Test: cell-based or functional assay

Row | Binder | EC50 (nM), inhibition of bead-bound rhCD73 enzymatic activity [nM]
11 | B8 | 6.94
12 | B9 | 4.18

Target: T3, N-terminal domain of hCD73 (residues …)
Test: SPR, mAb captured on protein A
Procedure: For these experiments, protein A (Pierce) was immobilized to a density of 3000 — 4000 RU on flow cells 1-4 of a CM5 sensor chip (GE Healthcare) using standard ethyl(dimethylaminopropyl) carbodiimide (EDC)/N-hydroxysuccinimide (NHS) chemistry, with ethanolamine blocking, in a running buffer of 0.01 M HEPES pH 7.4, 0.15 M NaCl, 3 mM EDTA, 0.005% v/v tween 20. […] The running buffer for the kinetic experiments was 10 mM sodium phosphate, 130 mM sodium chloride, 0.05% tween 20, pH 7.1. The surfaces were regenerated after each cycle using two 30 s pulses of 10 mM glycine pH 1.5 at a flow rate of 30 μl/min. Sensogram data was double-referenced and then fitted to a 1:1 Langmuir model using Biacore T100 evaluation software v2.0.4, to determine the association rate constant (ka), the dissociation rate constant (kd), and the equilibrium dissociation constant (KD).

Row | Binder | Kd | koff | kon
13 | B11 | 0.72 nM | 0.00022 s⁻¹ | 300000 M⁻¹ s⁻¹
14 | B12 | 3.5 nM and 6.5 nM | 0.00028 s⁻¹ and 0.00051 s⁻¹ | 80000 M⁻¹ s⁻¹ and 79000 M⁻¹ s⁻¹
15 | B8 | 1.6 nM | 0.00095 s⁻¹ | 610000 M⁻¹ s⁻¹
16 | B9 | 14 nM | 0.0032 s⁻¹ | 230000 M⁻¹ s⁻¹
